The values below come from PMC4967042.

What all share (assay): MST
The target of data set [1] is RECQ1-C475A (human, UniProt P46063 1-649, C475A).
Data set [2] has as its target RECQ1-C478A (human, UniProt P46063 1-649, C478A).
For data set [3], the target named is RECQ1-C453A (human, UniProt P46063 1-649, C453A).
RECQ1-C453A, sequence (P46063 whole entry C453A): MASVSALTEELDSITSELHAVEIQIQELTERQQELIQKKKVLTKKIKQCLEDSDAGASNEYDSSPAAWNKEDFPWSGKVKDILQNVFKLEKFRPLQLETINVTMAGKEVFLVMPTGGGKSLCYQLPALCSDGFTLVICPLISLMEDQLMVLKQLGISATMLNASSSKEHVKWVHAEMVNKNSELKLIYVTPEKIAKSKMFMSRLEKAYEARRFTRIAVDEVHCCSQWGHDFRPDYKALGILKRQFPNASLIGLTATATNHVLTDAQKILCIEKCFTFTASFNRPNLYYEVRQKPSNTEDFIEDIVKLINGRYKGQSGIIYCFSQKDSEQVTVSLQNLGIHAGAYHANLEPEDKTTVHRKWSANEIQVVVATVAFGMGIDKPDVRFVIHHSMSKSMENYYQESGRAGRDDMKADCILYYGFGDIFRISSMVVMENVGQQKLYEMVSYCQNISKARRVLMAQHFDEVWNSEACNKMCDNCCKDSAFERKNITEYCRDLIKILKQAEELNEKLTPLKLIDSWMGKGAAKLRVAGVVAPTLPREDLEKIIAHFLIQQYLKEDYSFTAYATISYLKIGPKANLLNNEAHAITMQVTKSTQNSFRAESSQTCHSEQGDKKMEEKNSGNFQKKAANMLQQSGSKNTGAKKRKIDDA

RECQ1-C475A, sequence (P46063 whole entry C475A): as the sequence (P46063 whole entry C453A) above, with A453C, C475A counted along it
RECQ1-C478A, sequence (P46063 whole entry C478A): as the sequence (P46063 whole entry C453A) above, with A453C, C478A counted along it

B1: forked duplex T44/FLAP26 (dsDNA)
DNA 1: GCACTGGCCGTCGTTTTACGGTCGTGACTGGGAAAACCCTGGCG
DNA 2: TTTTTTTTTTTTTTTTTTTTTTCCAAGTAAAACGACGGCCAGTGC
Regarding B1, the results for the Kd in data set [1], in data set [2] and in data set [3] were 473 nM, 602 nM and 276 nM, respectively.
